Experimental findings from US12227570B2, “Anti-CEACAM6 antibodies and methods of use” (Singapore Health Services PTE LTD, priority 2016, dated 2025) are described below.

Where “and” joins values, the source holds several entries; their conditions need not be identical. Equal entries are not always repeated. Entries after “also recorded” stand apart in the source; their conditions may differ. Where only a bound is given, the exact number is not on record here.

Assay [1] has as its system PC-9 and A549 cells. Nature of the assay: Flow cytometry binding of GR6A04 derivatives. The format is cell-based. The procedure:
Cells were harvested as single cell suspensions using trypsin. 1E5 cells were used per sample, and incubated with 100 μl of mAb culture supernatant for 30 min. Cells were then washed with 1% bovine serum albumin in PBS, and further incubated with 100 μl of goat anti-mouse antibody fluorescein isothiocyanate (FITC)-conjugated (1:500, DAKO, Denmark) for 15 min at 4° C. in the dark. Cells were again washed and resuspended in 200 μL of 1% BSA/PBS for analysis on Guava® easy Cyte 8HT Benchtop Flow Cytometer (Merck Millipore, USA). For interrogation of […] binding, cells were fixed with 4% PFA/PBS (Affymetrix, USA) at room temperature for 10 min, washed in PBS, and permeabilised with 0.1% triton/PBS for 5 min at room temperature, before proceeding with incubation with mAb supernatant/primary antibody. For staining with propidium iodide, PI was added to a final concentration of 5 μg/mL for 5 min just prior to analysis by the flow cytometer.

In assay [2] the test system is A549−GR6A04+ cells. The assay is described as follows: ADC dose-response, CellTiter-Glo viability assay. The format is cell-based. As to conditions: viability 4 days post treatment. On the procedure: (§1) Cells were seeded into a black coated 96 well plate (Grenier Bio-one, UK) at a range of density from 1000-5000 cells per well (depending on the cell type used) and 90 μL per well. The plate was then incubated for 24 hours at 37° C. in humidified air with 5% CO2. After 24 hours, 10 μL of mAb or buffer was added to each well and the plate was again placed at 37° C. in humidified air with 5% CO2. 4 days after addition of mAb or buffer, 100 μL of CTG substrate (Promega, Wisconsin, USA) was added to each well. The plate was then left in the dark for 10 minutes, with vigorous shaking. The cell viability of the samples was then quantified using Tecan I-control (Tecan, Switzerland).
(§2) GR6A04 and a commercial mouse IgG1 isotype antibody (Clone MG1.45 from BioLegend) were directly conjugated with MMAE toxin (Moradec, San Diego, USA) at a DAR of 3.0 and 3.3 respectively. Dose-response curve for the conjugated mAbs were established with the CTG assay with a serial dilution range of 0 to 4.5 μg/ml. The cell viability of the cells was measure 4 days post treatment as described previously.
In general terms: In ATP-based viability assays light output follows the ATP content of the culture.

The subject of assay [3] is A549−GR6A04− populations. Nature of the assay: ADC dose-response, CellTiter-Glo viability assay. As to conditions: A549−GR6A04− non-binding cells. The format is cell-based. The procedure: as §1, §2
In assay [4] the test system is H1299. The assay is described as follows: ADC dose-response, CellTiter-Glo viability assay. As to conditions: H1299 non-binding cells. It counts as cell-based. The procedure: as §1, §2
Assay [5] deals with PC-9. Nature of the assay: ADC dose-response, CellTiter-Glo viability assay. The format is cell-based. As to conditions: viability 4 days post treatment. The procedure:
as §1, §2

Assay [6] concerns A549−GR6A04+ cells. The assay is described as follows: Subcutaneous xenograft model. It counts as in vivo, NCr Nude mice. As to conditions: for tumour growth versus buffer control: 10 mg/kg, 3 doses on D0, D4 and D8, start at tumour size >150 mm3. On the procedure: Xenograft models were established using A549−GR6A04+ cells in NCr Nude mice. 5E6 cells in DMEM basal media were mixed at a 1:1 ratio with Matrigel, and injected subcutaneously at a volume of 200 μl. Tumours were allowed to form and reach a size of >150 mm^3, before they were randomised into 5 groups of 5 mice each. The groups were treated with mAbs as follows: (1) Buffer control; (2) GR6A04-MMAE; (3) Hu-GR6A04; (4) GR6A04; (5) MG1.45-MMAE isotype control. mAbs were injected via tail vein injection at a total volume of 100 μl. Each dose, were applicable, is at 200 μg (equivalent to 10 mg/kg), and treatment was done every 4 days, for a total of 3 doses (Day 0, 4 and 8). Tumour size was monitored over 50 days.

In assay [7] the target is A549−GR6A04+. Nature of the assay: ADCC reporter bioassay (Promega, Luciferase reporter for FcγR). The format is cell-based. The procedure:
(§3) ADCC activity was measured using a reporter bioassay (Promega; ADCC Reporter Bioassay, #G7010). The ADCC bioassay was carried out according to the manufacturer's protocol Briefly, PC-9 and A549 cells were seeded at 5,000 cells per well in a 96-well clear bottom black tissue culture plates (Corning; #3904) in low 4% IgG-serum (Promega; #G711A) media and allowed to attach and spread overnight. Serial dilutions of Hu-GR6A04 were incubated in triplicate wells for approximately 15 min at 37° C., 5% CO2. Following incubation, engineered effector cells were added to the wells at approximately 150,000 cells per well. After 6 hours, Bio-Glo™ Luciferase Assay Substrate (Promega; #G719A and #G720A) was added to the wells and luminescence was measured using the Infinite® 200 microplate reader (Tecan).
(Reporter assays use an easily measured gene product as a stand-in for the process of interest.)

In assay [8] the target is PC-9. Described as above. It counts as cell-based. The procedure: as §3

B1: GR6A04-MMAE (conjugate)
VH: SGPELVKPGASVKMSCKASGNTFTSYVMHWVKQKPGQGLEWIGYINPYNDGTKYNEKFKGKATLTSDKSSSTAYMELSSLTSEDSAVYYCARSTARATPYFYAMDYWGQGTSVTVSS
VL: DILMTQSPSSLAVTAGEKVTMRCKSSQSLLWSVNQNSYLSWYQLKQGQPPKLLLYGASIRESWVPDRFTGSGSGTDFTLTISNVHVEDLAVYYCQHNHGSFLPYTFGGGTKLEIK
Consider B1, for which, in assay [1], the flow cytometry binding result is “comparable to unconjugated GR6A04; also recorded: not affected after conjugation”. In addition, the half-maximal effective concentration (EC50) in assay [2] was 3.33 nM; in assay [5], 19.8 nM and 19.6 nM. Moreover, the “effect on cell growth” value in assay [3] and in assay [4] was “did not have an effect on cell growth” throughout. Further, the “tumour growth versus buffer control” value in assay [6] was “little tumour growth”. The tumour growth in assay [6] (I.V. 10 mg/kg, every 4 days for 3 doses, throughout the 45 days of study) is on record as under 2 fold.

B2: Hu-GR6A04: human chimeric mAb with GR6A04 VH and VL cloned into a human Ig constant region backbone, expressed in CHO cells (antibody, V domains shown)
VH: B1 VH
VL: B1 VL
Turning to B2, in assay [1], the flow cytometry binding entry is given as “comparable to GR6A04”. For the same molecule, the EC50 amounted to 1.33 nM in assay [7] and 39.6 nM in assay [8]. For the same molecule, the “tumour growth versus buffer control” value in assay [6] is recorded as “repression of tumour growth; also recorded: slower growth compared to the buffer control”.

One may read the EC50 as the concentration that produces a half-maximal response.
